Measured values: US20110052595A1 (Kyowa Kirin, published 2011)

What was measured:
[1] = target: bovine serum albumin (BSA) (bovine, UniProt P02769 25-607); assay: binding ELISA
[2] = target: T1, recombinant secretory human HB-EGF manufactured by R & D System (catalogue number 259-HE/CF) (human, UniProt Q99075 63-148, biotin-labeled with EZ-Link Sulfo-NHS-Biotin in the EGFR binding inhibition assay only); assay: Biacore T-100, HB-EGF immobilized on CM5 chip, antibody as analyte
T1 construct: Bought protein; also called recombinant human HB-EGF; secretory HB-EGF
Experimental: In order to analyze binding activities of a mouse antibody KM3566 and the chimeric antibody KM3966 for human HB-EGF in reaction kinetics, the binding activity measurement was carried out using Biacore. All of the following operations were carried out using Biacore T-100 (manufactured by Biacore). Human HB-EGF (manufactured by R & D) prepared into 5 μg/ml using HBS-EP Buffer (manufactured by Biacore) was immobilized onto a CM 5 sensor chip (manufactured by Biacore) to a level of 80 RU (resonance unit) by an amine coupling method. Thereafter, each antibody diluted 5-fold from 9 nmol/l was let flow on the chip at a rate of 10 μl/min, and by analyzing the sensor-gram at each concentration, the association rate constant and dissociation rate constant of each antibody for human HB-EGF were calculated.
It was confirmed based on the results that both antibodies almost the same binding activity for human HB-EGF.

[3] = target: T2, mutant HB-EGF in which serine at position 147 from the N-terminal was substituted with threonine (human, UniProt Q99075 63-148); assay: cell ELISA, biotin-labeled antibody on mutant HB-EGF gene-transferred LMTK cells, corrected for expression with H-6
T2 construct: Transiently expressed on mouse LMTK cells; also called S147T
T2 chain: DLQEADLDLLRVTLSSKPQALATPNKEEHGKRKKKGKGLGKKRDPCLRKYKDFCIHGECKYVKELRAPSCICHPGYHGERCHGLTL
Experimental: Firstly, biotin-labeled anti-HB-EGF antibody (KM3566, KM3579 or KM3966) diluted to 2 μg/ml with a binding buffer (prepared by adding nonessential amino acids, 20 mM HEPES-NaOH (pH 7.2) and 10% fetal bovine serum to Ham's F12) was allowed to react at 4° C. for 2 hours with 1×10⁵ cells of the mutant HB-EGF gene-transferred cell, human/mouse chimeric HB-EGF gene-transferred cell or mock. After the reaction, the cells were washed twice with an ice-cooled washing buffer (prepared by adding 0.5 mM CaCl₂, 0.5 mM MgCl₂ and 0.1% fetal bovine serum to PBS) and then once with PBS(+) (prepared by adding 0.5 mM CaCl₂ and 0.5 mM MgCl₂ to PBS). A formaldehyde solution diluted to 1.8% with PBS(+) was added to the washed cells, and the cells were fixed at 4° C. for 20 minutes. […] By carrying out development of color using a peroxidase detection kit (ELISA POD Substrate OPD Kit, manufactured by Nacalai Tesque), the absorbance at 492 nm was measured and the activity of cell-bonded HRP was measured.
A value obtained by subtracting the absorbance for mock from the absorbance for each of the various mutant HB-EGF gene-transferred cells or human/mouse chimeric HB-EGF gene-transferred cells of the anti-HB-EGF antibody was used as the value A. […]

Sequence of bovine serum albumin (BSA) (P02769 25-607 limits assumed): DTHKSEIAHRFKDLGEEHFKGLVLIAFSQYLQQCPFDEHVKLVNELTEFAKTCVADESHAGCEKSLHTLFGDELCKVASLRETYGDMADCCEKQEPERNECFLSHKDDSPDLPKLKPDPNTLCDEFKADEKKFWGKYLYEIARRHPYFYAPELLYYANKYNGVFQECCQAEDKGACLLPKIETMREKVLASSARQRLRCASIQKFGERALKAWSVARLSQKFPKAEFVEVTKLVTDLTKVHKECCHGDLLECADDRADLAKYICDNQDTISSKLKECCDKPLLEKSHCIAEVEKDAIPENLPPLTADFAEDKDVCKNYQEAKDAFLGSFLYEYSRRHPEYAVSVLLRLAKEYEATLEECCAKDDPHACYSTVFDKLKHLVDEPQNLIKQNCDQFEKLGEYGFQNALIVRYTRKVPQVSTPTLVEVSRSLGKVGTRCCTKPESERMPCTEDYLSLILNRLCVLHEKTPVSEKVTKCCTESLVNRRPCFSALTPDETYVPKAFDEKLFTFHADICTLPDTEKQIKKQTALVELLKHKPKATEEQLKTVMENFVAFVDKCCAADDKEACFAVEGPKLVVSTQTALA

B1: anti-HB-EGF monoclonal antibody KM3566 (antibody, V domains shown)
VH: QVQLQQSGTELARPGASVKLSCKASGYTFRTYGITWVKQRTGQGLEWIGEIFPGSGNTYYNEKFKGKASLTADKSSSTAYMQLSSLTSEDSAVYFCARESFSDGYYGYFDYWGQGTTLTVSS
VL: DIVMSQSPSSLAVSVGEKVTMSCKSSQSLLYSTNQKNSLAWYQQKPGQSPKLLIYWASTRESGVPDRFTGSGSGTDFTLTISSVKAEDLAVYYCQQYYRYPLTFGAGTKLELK
notes: also called anti-HB-EGF mouse antibody KM3566; monoclonal antibody produced by hybridoma KM3566 (FERM BP-10490)
binding result [1]: no binding
kon [2]: 270000 M⁻¹ s⁻¹

B2: anti-HB-EGF chimeric antibody KM3966 (antibody, V domains shown)
VH: B1 VH
VL: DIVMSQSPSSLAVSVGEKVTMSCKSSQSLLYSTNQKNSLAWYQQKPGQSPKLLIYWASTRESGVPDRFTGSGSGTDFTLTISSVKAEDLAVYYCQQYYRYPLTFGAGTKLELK
notes: also called human chimeric antibody KM3966; anti-HB-EGF monoclonal antibody KM3966
kon [2]: 240000 M⁻¹ s⁻¹
relative binding activity (ratio to pRTHGC-6) [3]: ~0.33 fraction of binding to pRTHGC-6
